Measured values published in patent publication US12611439B2, “Ionic self-assembling peptides” (3-D MATRIX, LTD., priority 2018, dated 2026).
“Also recorded” adds a separate entry of the source. Peptide text beside a SMILES is read from it.

Columns and labels:
[1] = Net charge of self-assembling peptides in solution; type: physicochemical; settings: for Net charge at pH 7.5: in solution at pH 7.5
Excerpt: Several exemplary self-assembling peptides described herein (Table 5; SEQ ID NO:21-40) were designed to have a net charge, positive or negative, when formulated at pH 7.5. In contrast, previously-described self-assembling peptides have a net zero charge at the same pH.

pig stomach submucosa = assay: Submucosal injection in in vivo porcine model, stomach; settings: for submucosal elevation after injection / submucosal elevation over time compared with saline and MucoUp: 2 mL of 0.1% (w/v) peptide, 0.9% NaCl, pig stomach; for submucosal elevation after injection / submucosal elevation over time compared with saline and MucoUp / Appearance of stomach mucosa: pH 7.5; for Appearance of stomach mucosa: 2 mL injected
Procedure: An in vivo porcine animal model was used to perform endoscopic mucosal and submucosal dissections as described in Uraoka et al. (2009) Drug Des. Devel. Ther. 2:131-8, incorporated herein by reference. Briefly, 2 mL of select peptide formulations were injected in between the […] in stomach of a pig and the submucosa was dissected using electro-knife. The gross appearance of the injection site and of dissected submucosal tissues at the injection sites were analyzed. […] Therefore, an in vivo porcine model system was used to assess the ability of these compositions to induce submucosal elevation upon injection into gastrointestinal submucosa, and the degree of tissue damage. In this model, submucosal injections with liquid compositions were performed and the morphology of the site of injection analyzed. Submucosal injection with aqueous solutions is used during the excision of lesions from the gastrointestinal tract in order to facilitate removal of the lesion by providing a safety cushion during resection (see, e.g., Kim et al. (2013) World J. Gastroenterol. 19(20): 3069-76, incorporated herein by reference). Here, aqueous pharmaceutical compositions comprising three exemplary self-assembling peptides formulated at pH 7.5: KLNL12 (SEQ ID NO:21), NLKL12 (SEQ ID NO:23) or KIQI13 (SEQ ID NO:29), were compared to an aqueous pharmaceutical composition comprising the previously described RADA16 self-assembling peptide (formulated at pH 2.5), a 0.4% solution of sodium hyaluronate (MucoUp®, Boston Scientific Japan K.K., Tokyo, Japan), and saline, pH 7.5.

[2] = Appearance (solubility) of aqueous compositions at pH 2.5 and pH 7.5; type: physicochemical
Procedure: To determine the solubility of exemplary self-assembling peptides in aqueous pharmaceutical compositions formulated at acidic and neutral pH, the appearance of the pharmaceutical compositions was assessed. Homogenous and transparent appearance reflects sufficient solubility of the peptides in solution and minimal hydrogel formation. […] The appearance of exemplary self-assembling peptides at pH 2.5 and pH 7.5 is shown below in Table 6 and FIG. 20.

porcine esophagus mucosa = assay: Submucosal injection in in vivo porcine esophagus
Procedure: In another embodiment, mucosal aggregation visualized as white precipitate near the injection site was evaluated in an in vivo porcine esophagus.

[3] = Frequency sweep test (storage modulus) before and after exposure to DMEM; type: physicochemical; settings: pH 7.5; for rheological properties (mechanical strength) before and after exposure to DMEM: 1% (w/v) peptide; for increase of mechanical strength after exposure to DMEM: 0.15% (w/v)
Procedure: Peptides formulated as aqueous solutions were placed between the plates of a rheometer (DHR-1, TA Instruments, 20 mm plates at a measuring geometry of 500 μm or 40 mm cone and plate at a measuring geometry of 2.0° of cone angle) and frequency stress sweep tests were performed at 0.1 Hz to 10 Hz of frequency with 0.1% of strain; measurements were performed after 2 minutes of relaxation time at 37° C. To do frequency sweep tests after exposure to Dulbecco's Modified Eagle Medium (DMEM), 10 mL of DMEM was added in chamber surrounding the plates, the sample in plates was submerged into the DMEM and the frequency test was performed as described after 20 minutes.
Rheological properties of aqueous pharmaceutical compositions comprising the exemplary self-assembling peptides KLNL12 (SEQ ID NO:21), KIQI13 (SEQ ID NO:29), or NLEL12 (SEQ ID NO:33) were determined by performing a frequency sweep test over storage modulus.
In some embodiments, peptides formulated as aqueous solutions, volume 700 μl, were placed between the plates of a rheometer (DHR-1, TA Instruments, 40 mm cone and plate at a measuring geometry of 2.0° of cone angle) and frequency sweep tests were performed at 0.1 Hz to 10 Hz of frequency with 0.1% of strain; measurements were performed after 2 minutes of relaxation time at 37° C. In some embodiments, frequency sweep tests were performed after exposure to Dulbecco's Modified Eagle Medium (DMEM), where 10 mL of DMEM was added in chamber surrounding the plates, the sample in plates was submerged into the DMEM and the frequency test was performed as described after 20 minutes.

[4] = Viscosity determination at increasing shear rate (shear thinning); type: physicochemical; settings: 1% (w/v) peptide, pH 7.5
Procedure: Peptides formulated as aqueous solutions (200 μL), were placed between the plates of a rheometer (DHR-1, TA Instruments, 20 mm plates at a measuring geometry of 500 μm) and the viscosity was measured from 0.001 s^−1 to 100 s^−1 shear rate. Thixotropic Measurements
In some clinical applications, administration of pharmaceutical compositions comprising self-assembling peptides requires exposing the compositions to pressure and/or shear thinning (e.g., during injection through a syringe needle or transferred via a pump-based system). […] To determine the shear thinning properties of pharmaceutical compositions of the self-assembling peptides formulated at pH 7.5, formulations comprising varying ionic strengths were prepared using different concentrations of sodium chloride, and viscosity measured at increasing shear rates. Thixotropic properties of formulations were also determined as well as the storage modulus over time at specific frequencies and pressure.
FIGS. 6-8 show the experimentally determined viscosity of aqueous pharmaceutical compositions comprising either 1% (w/v) KLNL12 (SEQ ID NO:21), 1% (w/v) IQIK13 (SEQ ID NO:28), or 1% (w/v) NLEL12 (SEQ ID NO:33), at pH 7.5. FIGS. 9 and 10 show the experimentally determined viscosity of aqueous pharmaceutical compositions comprising either 1% KLNL12 (SEQ ID NO:21) or 1% NLEL12 (SEQ ID NO:33), and 0.9% NaCl (to mimic physiological conditions) at pH 7.5. […] That is, decreased viscosity with increasing sheer rate. This property may advantageously facilitate application and use of the pharmaceutical compositions (e.g., due to decreased viscosity while pumping) while maintaining a desirable viscosity at a site of application (e.g., where no sheer force is being applied).

[5] = porcine esophagus, compositions of Table 9

Ac-NLDLNLDLNLDL-NH2 [NLDL12]
Net charge at pH 7.5 [1]: −3

Ac-NLKLNLKLNLKL-NH2 [NLKL12]
Net charge at pH 7.5 [1]: +3
submucosal elevation after injection (pig stomach submucosa): resulted in submucosal elevation
submucosal elevation over time compared with saline and MucoUp (pig stomach submucosa): better submucosal elevation than saline and MucoUp®

Ac-KLNLKLNLKLNLKLNLK-NH2 [KLNL17]
Net charge at pH 7.5 [1]: +5

Ac-IEIKIEIKIEIKI-NH2 [IEIK13]
Appearance at different pH: At pH 7.5 [2]: phase separation and cloudy appearance

Ac-KLNLKLNLKLNLK-NH2 [KLNL13]
Net charge at pH 7.5 [1]: +4

Ac-LNLKLNLKLNLK-NH2 [LNLK12]
Net charge at pH 7.5 [1]: +3

CC[C@H](C)[C@H](NC(=O)[C@H](CCC(N)=O)NC(=O)[C@@H](NC(=O)[C@H](CCCCN)NC(=O)[C@@H](NC(=O)[C@H](CCC(N)=O)NC(=O)[C@@H](NC(=O)[C@H](CCCCN)NC(=O)[C@@H](NC(=O)[C@H](CCC(N)=O)NC(=O)[C@@H](NC(=O)[C@H](CCCCN)NC(C)=O)[C@@H](C)CC)[C@@H](C)CC)[C@@H](C)CC)[C@@H](C)CC)[C@@H](C)CC)C(N)=O [KIQI12, Ac-KIQIKIQIKIQI-NH2] (Ac-KIQIKIQIKIQI-NH2)
Appearance of stomach mucosa (pig stomach submucosa; 0.1% (w/v) peptide with NaCl 0.9%): do not appear to alter submucosal tissue morphology; also recorded: Clear/transparent
Appearance of stomach mucosa (porcine esophagus mucosa; porcine esophagus, 0.1% (w/v) peptide with NaCl 0.9%, pH 7.5): cloudy/aggregation
mucosal aggregation at injection sites (porcine esophagus mucosa; [5]): Mucosal aggregation was observed

Ac-LKLNLKLNLKLN-NH2 [LKLN12]
Net charge at pH 7.5 [1]: +3

Ac-KIQIKIQIKIQIK-NH2 [KIQI13]
rheological properties (mechanical strength) before and after exposure to DMEM ([3]; 0.9% NaCl): increased after DMEM treatment
rheological properties (mechanical strength) before and after exposure to DMEM [3]: increased after DMEM treatment
Net charge at pH 7.5 [1]: +4
submucosal elevation after injection (pig stomach submucosa): resulted in submucosal elevation
submucosal elevation over time compared with saline and MucoUp (pig stomach submucosa): better submucosal elevation than saline and MucoUp®

Ac-INIKINIKINIKI-NH2 [INIK13]
Net charge at pH 7.5 [1]: +3

Ac-KANAKANAKANA-NH2 [KANA12]
Net charge at pH 7.5 [1]: +3

CC(=O)N[C@@H](CC(C)C)C(=O)N[C@@H](CCC(=O)O)C(=O)N[C@@H](CC(C)C)C(=O)N[C@@H](CCC(N)=O)C(=O)N[C@@H](CC(C)C)C(=O)N[C@@H](CCC(=O)O)C(=O)N[C@@H](CC(C)C)C(=O)N[C@@H](CCC(N)=O)C(=O)N[C@@H](CC(C)C)C(=O)N[C@@H](CCC(=O)O)C(=O)N[C@@H](CC(C)C)C(=O)N[C@@H](CCC(N)=O)C(N)=O [LELQ12, Ac-LELQLELQLELQ-NH2] (Ac-LELQLELQLELQ-NH2)
mucosal aggregation at injection sites (porcine esophagus mucosa; pig, in vivo): mucosal aggregation was not observed
Appearance of stomach mucosa (porcine esophagus mucosa; pig, in vivo, pH 7.5): clear/transparent

Ac-KLDLKLDLKLDL-NH2 [KLDL12, reference compound]
Appearance at different pH: At pH 7.5 [2]: phase separation and cloudy appearance
Net charge at pH 7.5 [1]: 0
Net charge at pH 7.5 ([1]; listed as KLD12): about zero

CC(=O)N[C@@H](CCC(N)=O)C(=O)N[C@@H](CC(C)C)C(=O)N[C@@H](CCC(=O)O)C(=O)N[C@@H](CC(C)C)C(=O)N[C@@H](CCC(N)=O)C(=O)N[C@@H](CC(C)C)C(=O)N[C@@H](CCC(=O)O)C(=O)N[C@@H](CC(C)C)C(=O)N[C@@H](CCC(N)=O)C(=O)N[C@@H](CC(C)C)C(=O)N[C@@H](CCC(=O)O)C(=O)N[C@@H](CC(C)C)C(N)=O [QLEL12, Ac-QLELQLELQLEL-NH2] (Ac-QLELQLELQLEL-NH2)
rheological property versus peptide concentration ([3]; 0.1% to 0.3% (w/v), 0.9% NaCl): linear relationship
increase of mechanical strength after exposure to DMEM ([3]; 0.9% NaCl, frequency 0.1 Hz): 23 fold
increase of mechanical strength after exposure to DMEM ([3]; 0.9% NaCl, frequency 1 Hz): 20 fold
increase of mechanical strength after exposure to DMEM ([3]; 0.9% NaCl, frequency 10 Hz): 9 fold
Appearance of stomach mucosa (pig stomach submucosa; 0.2% (w/v) peptide with NaCl 0.9%): no mucosal aggregation was observed; also recorded: do not appear to alter submucosal tissue morphology; also recorded: clear/transparent
Appearance of stomach mucosa (porcine esophagus mucosa; porcine esophagus, 0.2% (w/v) peptide with NaCl 0.9%, pH 7.5): clear/transparent
mucosal aggregation at injection sites (porcine esophagus mucosa; [5]): mucosal aggregation was not observed

Ac-IKIQIKIQIKIQI-NH2 [IKIQ13]
Net charge at pH 7.5 [1]: +3

Ac-QIKIQIKIQIKIQ-NH2 [QIKI13]
Net charge at pH 7.5 [1]: +3

Ac-RANARANARANARANA-NH2 [RANA16]
Net charge at pH 7.5 [1]: +4

Ac-IQIKIQIKIQIK-NH2 [IQIK12]
Net charge at pH 7.5 [1]: +3

Ac-RADARADARADARADA-NH2 [RADA16, reference compound]
Appearance at different pH: At pH 7.5 [2]: precipitates; also recorded: phase separation and cloudy appearance
net charge as a function of pH ([1]; around neutral pH): about 0
period after injection until mucosal aggregation (pig stomach submucosa; pig, in vivo, pH 2.5): 10 to 15 min
mucosal aggregation at injection sites (porcine esophagus mucosa; pig, in vivo): Mucosal aggregation was observed
Appearance of stomach mucosa (porcine esophagus mucosa; pig, in vivo, pH 2.5): cloudy/aggregation

Ac-KVNVKVNVKVNV-NH2 [KVNV12]
Net charge at pH 7.5 [1]: +3

Ac-KLTLKLTLKLTL-NH2 [KLTL12]
Net charge at pH 7.5 [1]: +3

Ac-IQIKIQIKIQIKI-NH2 [IQIK13]
Net charge at pH 7.5 [1]: +3
viscosity in response to increasing shear rate [4]: exhibit sheer thinning
